Data reported in US20220175942A1 (published 2022).
Residue numbers refer to the chain shown, from its start.

T1: CCL22_HUMAN (human, UniProt O00626 25-93)
T1 chain: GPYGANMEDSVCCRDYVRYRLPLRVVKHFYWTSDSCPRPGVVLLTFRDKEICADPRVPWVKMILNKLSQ

T2: CCL3_HUMAN (human, UniProt P10147 24-92)
T2 chain: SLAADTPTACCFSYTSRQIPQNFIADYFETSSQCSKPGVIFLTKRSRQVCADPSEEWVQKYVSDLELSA

T3: CCL18_HUMAN (human, UniProt P55774 21-89)
T3 chain: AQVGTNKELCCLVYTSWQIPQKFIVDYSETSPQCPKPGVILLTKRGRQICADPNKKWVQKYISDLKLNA

T4: CCL4 (human, UniProt P13236 24-92)
T4 chain: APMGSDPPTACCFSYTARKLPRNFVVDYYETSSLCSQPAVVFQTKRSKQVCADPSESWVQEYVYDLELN

B1: P672_RHIPU (other)
chain: VCEVSEQEGVGEDNATEDEDYEDFFKPVTCYFANSTVGPLRPPNCTVVCTNNTAWWNDTKSDGGHCYSEYRPEKRTHSREIYNCTIGVCGNGTCIANHTYADCW
B2: P985_AMBPA (other)
chain: DEESEELGASTDVDYEELDANCTCPAPALTSTRNNKHYPLGCIYNCSSYNCTIPDGTPCYVLTLGEVKEHLQIGSTVPNCTCGLCRNGTCVSNGTVEECFAVEEIEET
B3: P546_AMBCA (other)
chain: ENTQQEEEDYDYGTDTCPFPVLANKTNKAKFVGCHQKCNGGDQKLTDGTACYVVERKVWDRMTPMLWYSCPLGECKNGVCEDLRKKEECRKGNGEEK
B4: P974_AMBCA (other)
chain: B3 chain with E8Q, S69E, E88D
B5: P1183_AMBTR (other)
chain: EAPKDDFEYDGGCPFVVLDNGTHVKPAGCSHLCNGAPETLDNIECYNVTEEVAKRMTPGIPYACWLGWCSKGECKRDNRTEVCYRGSEEE
B6: P983_AMBPA (other)
chain: EDTGTEDDFDYGNTGCPFPVLGNYKSNMTKPVGCKNKCGSGYEVLNDTTPCYVIDQKVFNNMVPLRQYSKCPLGFCENGECKPNDQAEDCYKGREEQK
B7: P1182_AMBMA (other)
chain: EPKDDNDYGGGCPFVVLGNGTHAKPAGCSHLCNGAPETLDNIECYNVTEEVAKRMTPGIPYACWLGWCNKGECKRGNRTEVCYRGSEEE
B8: P1180_AMBTR (other)
chain: EEPKDGYDYTEGCPFVVLGNGTHAKPAGCSHLCNGAPETLDDNMECYNVTEEVAKRMTPDIPYTCWLGWCSKGECKRDNRTEVCYRGSERE
B9: P1181_AMBMA (other)
chain: EEREDDNDYGGGCPFVVLGNGTHAKPAGCSHLCNGAPETLDNIECYNVTEEVAKRMTPDIPYTCWLGWCSKGECKRDNRTEVCYRGSERE
B10: P467_RHIPU (other)
chain: AEKSLDSDSSGEDYELWTQGCPFLVAENRTGFGTTVSCQHNCNGAIEKVPEGEPCYTIGEDGLGRMKLNLPYNCSLGECSGGVCVPNGRSDVCFKRTWEENNKAMA
B11: P983_AMBCA (other)
chain: B6 chain
B12: CCL4_HUMAN (ligand)
chain: T4 chain
B13: CCL8_HUMAN (ligand)
chain: QPDSVSIPITCCFNVINRKIPIQRLESYTRITNIQCPKEAVIFKTKRGKEVCADPKERWVRDSMKHLDQIFQNLKP
B14: CCL5_HUMAN (ligand)
chain: SPYSSDTTPCCFAYIARPLPRAHIKEYFYTSGKCSNPAVVFVTRKNRQVCANPEKKWVREYINSLEMS
B15: CCL11_HUMAN (ligand)
chain: not shown
B16: CCL17_HUMAN (ligand)
chain: ARGTNVGRECCLEYFKGAIPLRKLKTWYQTSEDCSRDAIVFVTVQGRAICSDPNNKRVKNAVKYLQSLERS
B17: CCL19_HUMAN (ligand)
chain: GTNDAEDCCLSVTQKPIPGYIVRNFHYLLIKDGCRVPAVVFTTLRGRQLCAPPDQPWVERIIQRLQRTSAKMKRRSS
B18: CCL1_HUMAN (ligand)
chain: KSMQVPFSRCCFSFAEQEIPLRAILCYRNTSSICSNEGLIFKLKRGKEACALDTVGWVQRHRKMLRHCPSKRK
B19: CCL15_HUMAN (ligand)
chain: QFTNDAETELMMSKLPLENPVVLNSFHFAADCCTSYISQSIPCSLMKSYFETSSECSKPGVIFLTKKGRQVCAKPSGPGVQDCMKKLKPYSI

The binders below were run against CCL23_HUMAN (assay: BLI).

Binder	Kd [nM]
B1	10

What follows are binders tested against CCL24_HUMAN (assay: BLI).

Binder	Kd [nM]
B2	40.8

Target: T1, CCL22_HUMAN
Assay: BLI

Binder	Kd [nM]
B3	27
B4	16.8

Each binder was assayed against CCL3L1_HUMAN (assay: BLI).

Binder	Kd [nM]
B5	110
B6	2.08
B7	63.4
B3	14.7
B4	13.1
B8	2.19
B1	2.7
B2	45.8
B9	100
B10	0.524

Each binder was assayed against CCL4L1_HUMAN (assay: BLI).

Binder	Kd [nM]
B5	48.4
B6	2.86
B3	8.87
B4	23.2
B8	19.5
B2	20.6
B9	13.5
B10	4.72

What follows are binders tested against CCL7_HUMAN (assay: BLI).

Binder	Kd [nM]
B5	5.38
B6	32.1
B7	29.2
B3	90
B4	41.2
B8	98
B1	16.1
B2	61.4
B9	35
B10	2.15

What follows are binders tested against CCL14_HUMAN (assay: BLI).

Binder	Kd [nM]
B6	81
B3	28.2
B4	49.1
B8	4.4
B1	5.5
B9	47
B10	4.13

These binders were tested against CCL13_HUMAN (assay: BLI).

Binder	Kd [nM]
B5	5.67
B6	17.3
B7	50
B3	13.1
B4	22.9
B8	8.96
B2	89
B9	19
B10	2.56

Each binder was assayed against CCL16_HUMAN (assay: BLI).

Binder	Kd [nM]
B3	6.67
B4	11
B1	3.29
B2	44.8
B10	14.1

Target: B18
Assay: BLI

Binder	Kd [nM]
B7	74
B3	160
B4	70.5
B2	8.32
B10	53.4

Target: B14
Assay: BLI

Binder	Kd [nM]
B2	3.52
B10	7.67

Target: T2, CCL3_HUMAN
Assay: BLI

Binder	Kd [nM]
B11	3.51
B7	9.46
B3	14.5
B4	7.97
B8	1.07
B1	2.6
B2	8.9
B9	3.29
B10	0.363

Each binder was assayed against CCL2_HUMAN (human, UniProt P13500 24-99) (assay: BLI).
CCL2_HUMAN, sequence (P13500 24-99): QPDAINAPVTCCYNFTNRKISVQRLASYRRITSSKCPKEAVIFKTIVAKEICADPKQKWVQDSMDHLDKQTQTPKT

Binder	Kd [nM]
B5	11.9
B11	13.9
B7	5.39
B3	83
B4	93
B8	53
B1	9.09
B2	16.8
B9	2.21
B10	0.001

Target: B13
Assay: BLI

Binder	Kd [nM]
B5	1130
B11	6.99
B7	28.2
B3	1.29
B4	2.58
B8	3.63
B1	3.7
B2	6.53
B9	119
B10	2.85

Target: T3, CCL18_HUMAN
Assay: BLI

Binder	Kd [nM]
B3	16
B4	0.683
B8	5.78
B2	431
B9	10
B10	16.6

Target: T4, CCL4
Assay: BLI

Binder	Kd [nM]
B5	78.3
B11	8.03
B7	92.4
B3	26.6
B4	30.2
B8	66
B2	7.47
B9	53
B10	13.6

Target: B16
Assay: BLI

Binder	Kd [nM]
B7	33.4
B3	70
B4	70.6

These binders were tested against B15 (assay: BLI).

Binder	Kd [nM]
B5	8.47
B11	18
B7	56
B3	8.7
B4	17
B8	32.5
B2	8
B9	19.5
B10	1.4

Target: B19
Assay: BLI

Binder	Kd [nM]
B1	31.5

These binders were tested against EVASIN1 (assay: -; previously described evasin).

Binder	Kd [nM]
B12	0.5

The binders below were run against EVASIN4 (assay: -; previously described evasin).

Binder	Kd [nM]
B13	0.25
B14	0.09
B15	0.34
B16	0.61
B17	0.14
B18	0.2
B19	2.31
